Results reported in paper PMC5607398, “Neisseria cinerea Expresses a Functional Factor H Binding Protein Which Is Recognized by Immune Responses Elicited by Meningococcal Vaccines” (Infection and Immunity, 2017).

B1: Neisseria meningitidis V1.1 factor H binding protein (V1.1 fHbp), recombinant (natural protein)
chain: GGVAADIGAGLADALTAPLDHKDKGLQSLTLDQSVRKNEKLKLAAQGAEKTYGNGDSLNTGKLKNDKVSRFDFIRQIEVDGQLITLESGEFQVYKQSHSALTAFQTEQIQDSEHSGKMVAKRQFRIGDIAGEHTSFDKLPEGGRATYRGTAFGSDDAGGKLTYTIDFAAKQGNGKIEHLKSPELNVDLAAADIKPDGKRHAVISGSVLYNQAEKGSYSLGIFGGKAQEVAGSAEVKTVNGIRHIGLAAKQ
notes: source: E. coli BL21(DE3), pET21b, purified (HisTrap, anion exchange)

Columns and labels:
[1] = biological target: full-length human CFH (Sigma) (UniProt P08603); assay: ELISA; conditions: read off a plot
[2] = biological target: Neisseria cinerea CCUG 346T factor H binding protein (V1.110 fHbp), recombinant (Neisseria cinerea); assay: SPR
[3] = biological target: T1, full-length human CFH (Sigma) (human, UniProt P08603 19-1231); assay: ELISA; plates coated with recombinant fHbp (3 ug/ml); full-length human CFH (Sigma) in 2-fold dilutions from 10 ug/ml; detected with anti-CFH antibody; conditions: both partners purified
T1 construct: also called full-length CFH; source: bought: Sigma

[4] = biological target: B1; assay: SPR; conditions: both partners purified

## Neisseria meningitidis V1.1 factor H binding protein (V1.1 fHbp), recombinant (from UniProt Q9JXV4) I311A
[1]; CFH 1.25 µg/ml (x position estimated), parent: est. 0.35
  response: 0.073 OD 450nm
[1]; CFH 2.5 µg/ml, parent: est. 0.40
  response: 0.082 OD 450nm
[1]; CFH 5 μg/ml, parent: est. 0.40
  response: 0.082 OD 450nm
[1]; CFH 5 µg/ml, parent: est. 0.41
  response: 0.11 OD 450nm
[1]; CFH 10 µg/ml, parent: est. 0.47
  response: 0.19 OD 450nm

## recombinant CFH6–7 (CCP domains 6 and 7 of complement factor H) (from UniProt P08603 321-443) (domain or fragment)
[2]
  Kd: 3.5 nM

## B1
[3]
  binding result: binds

B2: recombinant CFH6–7 (CCP domains 6 and 7 of complement factor H) (domain or fragment, human)
chain: TLKPCDYPDIKHGGLYHENMRRPYFPVAVGKYYSYYCDEHFETPSGSYWDHIHCTQDGWSPAVPCLRKCYFPYLENGYNQNYGRKFVQGKSIDVACHPGYALPKAQTTVTCMENGWSPTPRCI
[4]
  Kd: 3 ± 0.5 nM
